Values of other authors as cited in article PMC13507575.

Biological target: IL-1β (Homo sapiens) (UniProt P01584)

- Kd: 4.1 nM
Substance: canakinumab
